Biological target: T1, purified recombinant mouse PKCζ (mouse, UniProt Q02956 1-592)
T1 sequence (looked up): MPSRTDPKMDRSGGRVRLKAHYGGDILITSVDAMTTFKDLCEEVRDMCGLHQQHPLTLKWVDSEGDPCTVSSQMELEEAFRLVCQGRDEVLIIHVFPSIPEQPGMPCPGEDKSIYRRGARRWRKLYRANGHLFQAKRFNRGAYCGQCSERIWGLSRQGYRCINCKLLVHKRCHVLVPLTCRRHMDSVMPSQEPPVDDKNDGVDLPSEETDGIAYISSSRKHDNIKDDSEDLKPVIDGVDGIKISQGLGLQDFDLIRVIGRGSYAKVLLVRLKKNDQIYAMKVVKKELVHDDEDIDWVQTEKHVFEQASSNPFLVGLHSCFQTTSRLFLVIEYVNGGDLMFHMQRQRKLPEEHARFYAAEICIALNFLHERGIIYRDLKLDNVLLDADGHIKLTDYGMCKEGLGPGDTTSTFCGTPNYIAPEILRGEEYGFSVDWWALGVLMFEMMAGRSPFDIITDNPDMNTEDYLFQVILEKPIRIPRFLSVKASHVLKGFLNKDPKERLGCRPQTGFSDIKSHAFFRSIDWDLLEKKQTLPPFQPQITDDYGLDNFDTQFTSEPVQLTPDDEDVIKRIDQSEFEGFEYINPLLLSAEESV
Test: far-Western, overlay or dot blot

B1: GST-ASIP 712/936 (domain or fragment, rat, UniProt Q9Z340 712-936, looked up)
chain: RRISHSLYSGIEGLDESPTRNAALSRIMGESGKCQLSPTVNMPHDDTVMIEDDRLPVLPPHLSDQSSSSSHDDVGFIMTEAGTWAKATISDSADCSLSPDVDPVLAFQREGFGRQSMSEKRTKQFSNASQLDFVKTRKSKSMDLGIADETKLNTVDDQRAGSPNRDVGPSLGLKKSSSLESLQTAVAEVTLNGNIPFHRPRPRIIRGRGCNESFRAAIDKSYDKP
binding result: binds

From paper PMC2132825 (The Journal of Cell Biology, 1998)
